Reference: IntAct's records for PubMed 29039417

B1: BBSome complex member BBS4 (Homo sapiens), Q96RK4 (parent)
chain: MAEERVATRTQFPVSTESQKPRQKKAPEFPILEKQNWLIHLHYIRKDYEACKAVIKEQLQETQGLCEYAIYVQALIFRLEGNIQESLELFQTCAVLSPQSADNLKQVARSLFLLGKHKAAIEVYNEAAKLNQKDWEISHNLGVCYIYLKQFNKAQDQLHNALNLNRHDLTYIMLGKIHLLEGDLDKAIEVYKKAVEFSPENTELLTTLGLLYLQLGIYQKAFEHLGNALTYDPTNYKAILAAGSMMQTHGDFDVALTKYRVVACAVPESPPLWNNIGMCFFGKKKYVAAISCLKRANYLAPFDWKILYNLGLVHLTMQQYASAFHFLSAAINFQPKMGELYMLLAVALTNLEDIENAKRAYAEAVHLDKCNPLVNLNYAVLLYNQGEKKNALAQYQEMEKKVSLLKDNSSLEFDSEMVEMAQKLGAALQVGEALVWTKPVKDPKSKHQTTSTSKPASFQQPLGSNQALGQAMSSAAAYRTLPSGAGGTSQFTKPPSLPLEPEPAVESSPTETSEQIREK
partner: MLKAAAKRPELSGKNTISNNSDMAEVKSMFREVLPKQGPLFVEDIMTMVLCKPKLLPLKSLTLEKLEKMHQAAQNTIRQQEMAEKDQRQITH

Variants of: B1
Settings: with bbip1_human BBIP1, A8MTZ0

Effect of a mutation on the interaction, with no effect:
P439K
V440A
V440E
V440K
K441A
K441E
D442A
D442E
D442K
P443A
P443E
P443K
K444A
K444E
S445A
S445E
S445K
K446A
K446E
H447A
H447E
H447K
Q448A
Q448E
Q448K
T449A
T449E
T449K
T450A
T450E
T450K
S451A
S451E
S451K
T452A
T452E
T452K
S453A
S453E
S453K
K454A
K454E
P455A
P455E
P455K
A456E
A456K
S457A
S457E
S457K
F458A
F458E
F458K
Q459A
Q459E
Q459K
Q460A
Q460E
Q460K
P461A
P461E
P461K
L462A
L462E
L462K
G463A
G463E
G463K
S464A
S464E
S464K
N465A
N465E
N465K
Q466A
Q466E
Q466K
A467E
A467K
L468A
L468E
L468K
G469A
G469E
G469K
Q470A
Q470E
Q470K
A471E
A471K
M472A
M472E
M472K
S473A
S473E
S473K
S474A
S474E
S474K
A475E
A475K
A476E
A476K
A477E
A477K
Y478A
Y478E
Y478K
R479A
R479E
R479K
T480A
T480E
T480K
L481A
L481E
L481K
P482A
P482E
P482K
S483A
S483E
S483K
G484A
G484E
G484K
A485E
A485K
G486A
G486E
G486K
G487A
G487E
G487K
T488A
T488E
T488K
S489A
S489E
S489K
Q490A
Q490E
Q490K
F491A
F491E
F491K
T492A
T492E
T492K
K493A
K493E
P494A
P494E
P494K
P495A
P495E
P495K
S496A
S496E
S496K
L497A
L497E
L497K
P498A
P498E
P498K
L499A
L499E
L499K
E500A
E500K
P501A
P501E
P501K
E502A
E502K
P503A
P503E
P503K
A504E
A504K
V505A
V505E
V505K
E506A
E506K
S507A
S507E
